± gives the uncertainty stated by the source.

The labels stand for the following.
B1: POU domain, class 4, transcription factor 2, residues 256 to 327; numbered along this chain, Q12837 (parent)
chain: RDLEAFAERFKQRRIKLGVTQADVGSALANLKIPGVGSLSQSTICRFESLTLSHNNMIALKPILQAWLEEAE

Variants of B1 are the subject of the series. The series is described as follows: abundance fitness (aPCA) (normalised: wild type 0, dead -1); higher = more abundant; growth selection in yeast, the domain comes from the species named. The settings on record: Homo sapiens.
Consider RDLEAFAERFKQRRIKLGVTQADVGSALANLKIPGVGSLTQSTICRFESLTLSHNNMIALKPILQAWLEEAE, for which the abundance fitness was 0.092 ± 0.1.
In the case of RDLEAFAERFKQRRIKLGVTQADVGSALANLKIPGVGSLYQSTICRFESLTLSHNNMIALKPILQAWLEEAE it was -0.685 ± 0.2.
In the case of RDLEAFAERFKQRRIKLGVTQADVGSALANLKIPGVGSLRQSTICRFESLTLSHNNMIALKPILQAWLEEAE it was -0.312 ± 0.059.
With RDLEAFAERFKQRRIKLGVTQADVGSALANLKIPGVGSLVQSTICRFESLTLSHNNMIALKPILQAWLEEAE, the abundance fitness is -0.385 ± 0.076.
Take RDLEAFAERFKQRRIKLGVTQADVGSALANLKIPGVGSLWQSTICRFESLTLSHNNMIALKPILQAWLEEAE: the abundance fitness is -0.779 ± 0.18.
In the case of RDLEAFAERFKQRRIKLGVTQADVGSALANLKIPGVGSLSQGTICRFESLTLSHNNMIALKPILQAWLEEAE it was -0.11 ± 0.068; in that of RDLEAFAERFKQRRIKLGVTQADVGSALANLKIPGVGSLSQVTICRFESLTLSHNNMIALKPILQAWLEEAE, -0.113 ± 0.057; in that of RDLEAFAERFKQRRIKLGVTQADVGSALANLKIPGVGSLSQLTICRFESLTLSHNNMIALKPILQAWLEEAE, -0.152 ± 0.062.
In the case of RDLEAFAERFKQRRIKLGVTQADVGSALANLKIPGVGSLSQWTICRFESLTLSHNNMIALKPILQAWLEEAE it was -0.359 ± 0.12; in that of RDLEAFAERFKQRRIKLGVTQADVGSALANLKIPGVGSLSQCTICRFESLTLSHNNMIALKPILQAWLEEAE, -0.325 ± 0.089; in that of RDLEAFAERFKQRRIKLGVTQADVGSALANLKIPGVGSLSQKTICRFESLTLSHNNMIALKPILQAWLEEAE, 0.068 ± 0.27.
Consider RDLEAFAERFKQRRIKLGVTQADVGSALANLKIPGVGSLSQQTICRFESLTLSHNNMIALKPILQAWLEEAE, for which the abundance fitness is -0.084 ± 0.11.
In the case of RDLEAFAERFKQRRIKLGVTQADVGSALANLKIPGVGSLSQFTICRFESLTLSHNNMIALKPILQAWLEEAE it was -0.494 ± 0.12.
In the case of RDLEAFAERFKQRRIKLGVTQADVGSALANLKIPGVGSLSQRTICRFESLTLSHNNMIALKPILQAWLEEAE it was -0.085 ± 0.068; in that of RDLEAFAERFKQRRIKLGVTQADVGSALANLKIPGVGSLSQTTICRFESLTLSHNNMIALKPILQAWLEEAE, -0.054 ± 0.081; in that of RDLEAFAERFKQRRIKLGVTQADVGSALANLKIPGVGSLSQNTICRFESLTLSHNNMIALKPILQAWLEEAE, -0.28 ± 0.15.
In the case of RDLEAFAERFKQRRIKLGVTQADVGSALANLKIPGVGSLSQPTICRFESLTLSHNNMIALKPILQAWLEEAE it was -0.381 ± 0.059; in that of RDLEAFAERFKQRRIKLGVTQADVGSALANLKIPGVGSLSQHTICRFESLTLSHNNMIALKPILQAWLEEAE, 0.085 ± 0.076.
Turning to RDLEAFAERFKQRRIKLGVTQADVGSALANLKIPGVGSLSQITICRFESLTLSHNNMIALKPILQAWLEEAE, the abundance fitness was -0.272 ± 0.39.
In the case of RDLEAFAERFKQRRIKLGVTQADVGSALANLKIPGVGSLSQETICRFESLTLSHNNMIALKPILQAWLEEAE it was 0.107 ± 0.13; in that of RDLEAFAERFKQRRIKLGVTQADVGSALANLKIPGVGSLSKSTICRFESLTLSHNNMIALKPILQAWLEEAE, 0.054 ± 0.15.
In the case of RDLEAFAERFKQRRIKLGVTQADVGSALANLKIPGVGSLSVSTICRFESLTLSHNNMIALKPILQAWLEEAE it was -0.187 ± 0.077; in that of RDLEAFAERFKQRRIKLGVTQADVGSALANLKIPGVGSLSDSTICRFESLTLSHNNMIALKPILQAWLEEAE, -0.058 ± 0.098.
In the case of RDLEAFAERFKQRRIKLGVTQADVGSALANLKIPGVGSLSISTICRFESLTLSHNNMIALKPILQAWLEEAE it was -0.275 ± 0.14; in that of RDLEAFAERFKQRRIKLGVTQADVGSALANLKIPGVGSLSFSTICRFESLTLSHNNMIALKPILQAWLEEAE, -0.335 ± 0.12; in that of RDLEAFAERFKQRRIKLGVTQADVGSALANLKIPGVGSLSTSTICRFESLTLSHNNMIALKPILQAWLEEAE, 0.077 ± 0.087.
For the variant RDLEAFAERFKQRRIKLGVTQADVGSALANLKIPGVGSLSGSTICRFESLTLSHNNMIALKPILQAWLEEAE, the abundance fitness turned out to be 0.041 ± 0.048.
In the case of RDLEAFAERFKQRRIKLGVTQADVGSALANLKIPGVGSLSESTICRFESLTLSHNNMIALKPILQAWLEEAE it was 0.111 ± 0.076; in that of RDLEAFAERFKQRRIKLGVTQADVGSALANLKIPGVGSLSWSTICRFESLTLSHNNMIALKPILQAWLEEAE, -0.06 ± 0.068.
As to RDLEAFAERFKQRRIKLGVTQADVGSALANLKIPGVGSLSSSTICRFESLTLSHNNMIALKPILQAWLEEAE, the abundance fitness is -0.044 ± 0.061.
In the case of RDLEAFAERFKQRRIKLGVTQADVGSALANLKIPGVGSLSHSTICRFESLTLSHNNMIALKPILQAWLEEAE it was 0.089 ± 0.11; in that of RDLEAFAERFKQRRIKLGVTQADVGSALANLKIPGVGSLSPSTICRFESLTLSHNNMIALKPILQAWLEEAE, -0.046 ± 0.063.
On to RDLEAFAERFKQRRIKLGVTQADVGSALANLKIPGVGSLSRSTICRFESLTLSHNNMIALKPILQAWLEEAE, for which the abundance fitness is -0.061 ± 0.06.
In the case of RDLEAFAERFKQRRIKLGVTQADVGSALANLKIPGVGSLSCSTICRFESLTLSHNNMIALKPILQAWLEEAE it was -0.37 ± 0.11; in that of RDLEAFAERFKQRRIKLGVTQADVGSALANLKIPGVGSLSLSTICRFESLTLSHNNMIALKPILQAWLEEAE, -0.289 ± 0.062.
In the case of RDLEAFAERFKQRRIKLGVTQADVGSALANLKIPGVGSLSQSDICRFESLTLSHNNMIALKPILQAWLEEAE it was -0.114 ± 0.13; in that of RDLEAFAERFKQRRIKLGVTQADVGSALANLKIPGVGSLSQSCICRFESLTLSHNNMIALKPILQAWLEEAE, -0.232 ± 0.096.
In the case of RDLEAFAERFKQRRIKLGVTQADVGSALANLKIPGVGSLSQSAICRFESLTLSHNNMIALKPILQAWLEEAE it was -0.271 ± 0.074.

Source of the values: the Human Domainome abundance scans (Beltran et al. 2025).
